Results: US20240010735A1 (EISAI R AND D MANAGEMENT, published 2024)

How the values were obtained:
Test in all cases: ELISA: Fc-His proteins (1 nM) captured on anti-6-His antibody, antibody B 10 µg/mL with human IgG 100 µg/mL, HRP anti-human kappa light chain antibody, OD450 as % of mouse EphA4-Fc-His
[1] = target: T1, mouse EphB1 extracellular region-Fc-His protein (mouse; human, UniProt Q8CBF3 18-540)
T1 construct: extracellular domain; not shown: Fc region of human IgG1; histidine tag
T1 sequence (looked up): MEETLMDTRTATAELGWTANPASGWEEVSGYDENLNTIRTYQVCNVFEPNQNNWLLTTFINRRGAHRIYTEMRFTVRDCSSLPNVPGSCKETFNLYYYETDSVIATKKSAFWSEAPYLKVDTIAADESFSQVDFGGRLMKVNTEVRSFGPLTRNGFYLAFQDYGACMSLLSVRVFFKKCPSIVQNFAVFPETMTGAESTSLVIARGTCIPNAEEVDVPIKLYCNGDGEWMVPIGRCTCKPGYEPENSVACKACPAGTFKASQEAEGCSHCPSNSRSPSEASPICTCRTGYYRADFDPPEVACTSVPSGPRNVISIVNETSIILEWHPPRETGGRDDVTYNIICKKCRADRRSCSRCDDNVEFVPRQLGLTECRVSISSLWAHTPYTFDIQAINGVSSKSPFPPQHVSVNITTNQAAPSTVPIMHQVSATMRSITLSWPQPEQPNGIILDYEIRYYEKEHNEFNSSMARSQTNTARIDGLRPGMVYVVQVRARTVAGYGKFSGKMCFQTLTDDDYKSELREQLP
Description: (§1) Rabbit anti-6-His antibodies (Bethyl Laboratories) were coated onto the wells of a 96-well plate (Nunc). After incubating at 4° C. overnight, the wells were blocked at room temperature for 1 hour by 1% Block Ace (DS Pharma Biomedical). After washing 3 times with 0.05% Tween 20/PBS (Thermo […]), each Eph receptor of mouse extracellular region-Fc-His protein (final concentration 1 nM) was seeded into each well, and incubated at room temperature for 1 hour. After washing 3 times, human IgG solution (100 μg/mL, Sigma) and antibody B (10 μg/mL) were supplemented to the wells, and incubated at room temperature for 1 hour. Horseradish peroxidase-labeled goat anti-human Kappa Light Chain antibody (IBL) was added, and incubated at room temperature for 1 hour. After washing 3 times, TMBZ (3,3′,5,5′-tetramethylbenzidine, Sigma) solution was added to the wells, and upon confirmation of modest coloring, an equal amount of quenching solution (1 N H₂SO₄, Wako Pure Chemicals) was added to the wells, and absorbance at 450 nm was read by a microplate reader (PerkinElmer).

[2] = target: T2, mouse EphB3 extracellular region-Fc-His protein (mouse; human, UniProt P54754 30-554)
T2 construct: extracellular domain; not shown: Fc region of human IgG1; histidine tag
T2 sequence (looked up): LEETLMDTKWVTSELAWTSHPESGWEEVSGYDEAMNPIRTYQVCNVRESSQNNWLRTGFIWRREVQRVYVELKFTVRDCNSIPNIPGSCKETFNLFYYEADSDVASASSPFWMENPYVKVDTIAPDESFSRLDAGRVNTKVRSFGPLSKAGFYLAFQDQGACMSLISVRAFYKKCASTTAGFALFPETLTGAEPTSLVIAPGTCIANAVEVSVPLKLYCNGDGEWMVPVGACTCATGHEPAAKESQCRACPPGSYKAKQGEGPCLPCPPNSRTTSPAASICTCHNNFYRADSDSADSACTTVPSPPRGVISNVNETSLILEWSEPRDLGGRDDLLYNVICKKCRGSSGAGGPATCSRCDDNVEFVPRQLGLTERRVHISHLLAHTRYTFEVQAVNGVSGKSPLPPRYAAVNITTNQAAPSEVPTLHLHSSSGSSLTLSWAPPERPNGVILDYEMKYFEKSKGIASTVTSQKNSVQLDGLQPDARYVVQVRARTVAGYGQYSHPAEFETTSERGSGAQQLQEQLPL
Description: as §1

[3] = target: T3, mouse EphA7 extracellular region-Fc-His protein (mouse; human, UniProt Q61772 28-555)
T3 construct: extracellular domain; not shown: Fc region of human IgG1; histidine tag
T3 sequence (looked up): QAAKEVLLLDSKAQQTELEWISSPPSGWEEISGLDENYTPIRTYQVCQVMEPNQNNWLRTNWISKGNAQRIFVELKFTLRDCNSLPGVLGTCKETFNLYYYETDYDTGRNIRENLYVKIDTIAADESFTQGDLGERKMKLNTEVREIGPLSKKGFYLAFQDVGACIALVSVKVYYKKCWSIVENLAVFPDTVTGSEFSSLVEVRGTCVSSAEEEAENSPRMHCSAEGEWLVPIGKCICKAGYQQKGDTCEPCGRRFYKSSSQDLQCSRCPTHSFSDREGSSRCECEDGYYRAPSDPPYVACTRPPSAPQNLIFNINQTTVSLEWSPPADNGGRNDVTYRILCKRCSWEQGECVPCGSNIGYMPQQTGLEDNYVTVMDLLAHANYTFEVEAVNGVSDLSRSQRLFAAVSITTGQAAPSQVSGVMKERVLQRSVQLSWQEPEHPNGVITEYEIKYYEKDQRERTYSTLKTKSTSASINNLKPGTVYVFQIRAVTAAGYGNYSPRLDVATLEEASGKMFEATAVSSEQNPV
Description: as §1

Measured: binding result

B1: humanized anti-EphA4 monoclonal antibody (antibody B) (antibody, human IgG2, V domains shown)
VH: QVQLVESGGGVVQPGRSLRLSCAVSGFSLTRFGVHWVRQAPGKGLEWVAVIWRGGSTDYNAAFMSRLTISKDNSKNTVYLQMNSLRAEDTAVYYCAKESLFGVYYDYGYYSMDYWGQGTTVTVSS
VL: DIQMTQSPSSLSASVGDRVTITCRASQEISGYLSWLQQKPGKAPKRLIYAASTLDSGVPSRFSGSRSGTEYTLTISSLQPEDFATYYCLQYASYPLTFGGGTKVEIKR
notes: expressed in Expi293F cells; also called humanized antibody of antibody A; HK2-42 / L1-8
no binding (tested: 10 µg/mL): all assays above
